# Source: PMC6053597, “Coupling of polymerase and carrier lipid phosphatase prevents product inhibition in peptidoglycan synthesis” (The Cell Surface, 2018)
# T1: PBP1B (Penicillin-binding protein 1B), untagged (E. coli, UniProt P02919 58-804)
# T1 construct: PBP1B, bifunctional GTase-TPase peptidoglycan synthase of E. coli (gene mrcB); also called untagged PBP1B; non-tagged PBP1B; source: purified as described (Bertsche et al., 2006; Typas et al., 2010)
# T1 sequence: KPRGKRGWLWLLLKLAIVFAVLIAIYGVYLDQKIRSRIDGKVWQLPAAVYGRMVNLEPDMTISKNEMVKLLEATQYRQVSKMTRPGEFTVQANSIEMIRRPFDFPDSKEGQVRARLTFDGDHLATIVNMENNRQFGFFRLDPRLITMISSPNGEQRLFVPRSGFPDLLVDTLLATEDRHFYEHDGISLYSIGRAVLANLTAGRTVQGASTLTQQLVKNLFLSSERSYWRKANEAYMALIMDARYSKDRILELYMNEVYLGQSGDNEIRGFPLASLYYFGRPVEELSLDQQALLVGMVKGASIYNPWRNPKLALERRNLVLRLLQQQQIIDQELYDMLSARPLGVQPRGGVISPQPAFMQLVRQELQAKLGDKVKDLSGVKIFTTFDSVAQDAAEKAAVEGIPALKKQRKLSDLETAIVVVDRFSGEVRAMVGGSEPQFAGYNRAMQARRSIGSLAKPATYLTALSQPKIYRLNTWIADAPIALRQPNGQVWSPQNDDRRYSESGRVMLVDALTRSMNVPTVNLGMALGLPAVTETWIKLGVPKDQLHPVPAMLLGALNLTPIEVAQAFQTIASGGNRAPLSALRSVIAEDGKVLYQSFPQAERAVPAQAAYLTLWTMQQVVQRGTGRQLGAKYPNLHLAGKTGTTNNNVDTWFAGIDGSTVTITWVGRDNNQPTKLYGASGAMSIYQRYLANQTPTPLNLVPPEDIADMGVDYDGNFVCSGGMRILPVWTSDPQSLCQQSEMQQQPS
# B1: PgpB-ht (C-terminal His6-tagged version of PgpB) (enzyme, E. coli)
# chain: MRSIARRTAVGAALLLVMPVAVWISGWRWQPGEQSWLLKAAFWVTETVTQPWGVITHLILFGWFLWCLRFRIKAAFVLFAILAAAILVGQGVKSWIKDKVQEPRPFVIWLEKTHHIPVDEFYTLKRAERGNLVKEQLAEEKNIPQYLRSHWQKETGFAFPSGHTMFAASWALLAVGLLWPRRRTLTIAILLVWATGVMGSRLLLGMHWPRDLVVATLISWALVAVATWLAQRICGPLTPPAEENREIAQREQES
# notes: PgpB, C55-PP pyrophosphatase (PAP2 family) of E. coli; amplified by PCR from genomic DNA of E. coli BW25113 and cloned into pET28a(+) (pET28a-pgpB); Purified according to Touzé et al., 2008a with modifications; also called oligohistidine tagged PgpB; source: E. coli C43(DE3), membrane fraction solubilised in DDM, purified (Ni-NTA); not shown: His6, C-terminal, kept
# Tests used:
# [1] = molecular target: T1, PBP1B (Penicillin-binding protein 1B), …; experiment: SPR; PBP1A or PBP1B covalently immobilised via their TPase active site on a sensor chip with bound ampicillin; PgpB-ht injected at 0.125-2 μM in 10 mM Tris/maleate pH 7.5, 150 mM NaCl, 5 mM imidazole, 5 mM β-mercaptoethanol, 0.05% DDM; 25 °C, 75 μL/min; equilibrium response fitted to a 1:1 model; apparent KD; details: both partners purified
# [2] = molecular target: T1, PBP1B (Penicillin-binding protein 1B), …; experiment: cell-based or functional assay
binder,measurement,setting,value
B1,Kd,[1],1050 nM
same,"lipid II consumption by PBP1B in proteoliposomes of artificial lipids with PgpB at a 1:1 molar ratio, with LpoB(sol), TLC (PBP1B alone: less than 20%)",[2],63%
